Assay results reported in article PMC10344970.

How the values were obtained:
Test in all cases: purified protein
[1] = test system: Oc1ccc2cccc(O)c2c1; settings: co-substrate 1 mM DMAPP, 50 mM Tris-HCl, 10 mM CaCl2, 5% DMSO, 37 °C, 15 min
[2] = test system: CC(C)=CCC/C(C)=C/COP(=O)(O)OP(=O)(O)O; settings: co-substrate 1-hydroxynaphthalene (1), 50 mM Tris-HCl, 10 mM CaCl2, 5% DMSO, 37 °C, 15 min, substrate inhibition at 1.0 mM or higher
[3] = test system: Oc1ccc2c(O)cccc2c1; settings: co-substrate 1 mM DMAPP, 50 mM Tris-HCl, 10 mM CaCl2, 5% DMSO, 37 °C, 15 min

**Q.** With ShPT (Stereum hirsutum FP-91666 SS1) as the substance, how does the Km [1] read?
**A.** Its Km is 920 ± 10 µM.

**Q.** And the kcat [1]?
**A.** The kcat was 0.46 ± 0.04 s⁻¹.

**Q.** What about the kcat/Km [1] of the same substance?
**A.** The kcat/Km was 511 M⁻¹ s⁻¹.

**Q.** What about the Km [2] of the same substance?
**A.** Its Km is 1010 ± 50 µM.

**Q.** And the kcat [2]?
**A.** The kcat was 0.36 ± 0.01 s⁻¹.

**Q.** What about the kcat/Km [2] of the same substance?
**A.** The kcat/Km was 357 M⁻¹ s⁻¹.

**Q.** What about the Km [3] of the same substance?
**A.** The Km was 660 ± 100 µM.

**Q.** And the kcat [3]?
**A.** Its kcat is 0.13 ± 0.01 s⁻¹.

**Q.** What about the kcat/Km [3] of the same substance?
**A.** The kcat/Km was 197 M⁻¹ s⁻¹.
